Test results published in publication PMC8809517, “Cofactor-independent RNA editing by a synthetic S-type PPR protein”.

T1: GFP-9S library array, motif 4 ND N98A;D124L (synthetic construct, N98A;D124L)
T1 chain: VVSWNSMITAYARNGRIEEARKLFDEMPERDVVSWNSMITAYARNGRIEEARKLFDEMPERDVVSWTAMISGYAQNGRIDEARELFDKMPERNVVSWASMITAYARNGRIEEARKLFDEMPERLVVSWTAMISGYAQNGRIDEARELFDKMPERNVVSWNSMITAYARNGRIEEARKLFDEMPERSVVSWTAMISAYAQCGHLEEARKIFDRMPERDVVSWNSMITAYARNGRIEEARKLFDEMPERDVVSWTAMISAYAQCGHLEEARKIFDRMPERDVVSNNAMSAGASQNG

T2: GFP-9S library array, motif 4 ND N98T;D124R (synthetic construct, N98T;D124R)
T2 chain: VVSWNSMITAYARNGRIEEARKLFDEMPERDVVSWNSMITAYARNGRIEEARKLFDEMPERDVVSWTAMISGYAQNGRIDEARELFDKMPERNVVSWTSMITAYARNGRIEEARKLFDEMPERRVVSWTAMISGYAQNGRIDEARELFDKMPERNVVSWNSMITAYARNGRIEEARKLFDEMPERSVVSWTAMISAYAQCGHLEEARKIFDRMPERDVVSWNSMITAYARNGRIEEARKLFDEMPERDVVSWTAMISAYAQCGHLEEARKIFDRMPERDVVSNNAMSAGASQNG

T3: GFP-9S library array, motif 4 ND N98D;D124P (synthetic construct, N98D;D124P)
T3 chain: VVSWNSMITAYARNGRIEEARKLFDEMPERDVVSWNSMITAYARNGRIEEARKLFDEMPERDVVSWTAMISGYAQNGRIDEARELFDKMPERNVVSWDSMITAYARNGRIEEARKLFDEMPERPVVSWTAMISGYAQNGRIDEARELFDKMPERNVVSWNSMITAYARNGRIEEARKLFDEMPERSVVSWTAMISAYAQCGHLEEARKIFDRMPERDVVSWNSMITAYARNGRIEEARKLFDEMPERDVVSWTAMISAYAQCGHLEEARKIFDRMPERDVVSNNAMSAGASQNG

T4: GFP-9S library array, motif 4 ND N98Y;D124S (synthetic construct, N98Y;D124S)
T4 chain: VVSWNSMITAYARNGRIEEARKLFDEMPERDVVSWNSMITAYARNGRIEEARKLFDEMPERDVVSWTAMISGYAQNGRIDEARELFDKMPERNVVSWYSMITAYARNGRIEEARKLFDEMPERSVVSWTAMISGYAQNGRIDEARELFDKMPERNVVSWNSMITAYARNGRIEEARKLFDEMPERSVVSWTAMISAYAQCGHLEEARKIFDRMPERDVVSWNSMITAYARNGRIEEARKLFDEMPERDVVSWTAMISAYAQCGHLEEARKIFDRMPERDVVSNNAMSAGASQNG

T5: GFP-9S library array, motif 4 ND N98E;D124I (synthetic construct, N98E;D124I)
T5 chain: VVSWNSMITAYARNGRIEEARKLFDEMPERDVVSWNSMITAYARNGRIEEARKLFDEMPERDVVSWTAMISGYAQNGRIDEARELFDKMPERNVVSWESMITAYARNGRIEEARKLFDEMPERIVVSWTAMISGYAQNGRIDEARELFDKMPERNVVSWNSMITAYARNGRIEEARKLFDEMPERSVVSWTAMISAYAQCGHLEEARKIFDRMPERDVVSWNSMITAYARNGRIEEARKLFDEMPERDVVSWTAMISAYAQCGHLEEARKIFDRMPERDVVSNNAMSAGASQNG


Experiments:
Experiment in all cases: high-throughput RNA pulldown from lysate on Ni-NTA beads; HRP: 50 mM Tris pH 8, 150 mM NaCl, 1 mM beta-mercaptoethanol, 50 ug/ml BSA, 3 ug/ml yeast RNA, 0.5% heparin; ITC and FP: Tris pH 8, 200 mM KCl, 5% glycerol; MST: 50 mM Tris pH 8, 200 mM NaCl, 1 mM DTT, BSA, heparin, 0.05% Tween 20
Details in all cases: tags: N-terminal His-eGFP
[1] = target: T1, GFP-9S library array, motif 4 ND …
[2] = target: T2, GFP-9S library array, motif 4 ND …
[3] = target: T3, GFP-9S library array, motif 4 ND …
[4] = target: T4, GFP-9S library array, motif 4 ND …
[5] = target: T5, GFP-9S library array, motif 4 ND …

Row | Binder | Kd ([1]; label: 5' IRDye 800CW) [nM] | Kd ([2]; label: 5' IRDye 800CW) [nM] | Kd ([3]; label: 5' IRDye 800CW) [nM] | Kd ([4]; label: 5' IRDye 800CW) [nM] | Kd ([5]; label: 5' IRDye 800CW) [nM] | Kd ([1]; label: 5' Cy5) [nM] | Kd ([2]; label: 5' Cy5) [nM] | Kd ([3]; label: 5' Cy5) [nM] | Kd ([4]; label: 5' Cy5) [nM] | Kd ([5]; label: 5' Cy5) [nM]
1 | AUUAAACGUGA (ssRNA) [IR-rpoA-A] | 272 | 80.8 | 341 | 911 | 5140 | – | – | – | – | –
2 | AUUAUACGUGA (ssRNA) [IR-rpoA-U] | 255 | 133 | 501 | 134 | 4070 | – | – | – | – | –
3 | AUUAGACGUGA (ssRNA) [Cy5-rpoA-G] | – | – | – | – | – | 134 | 120 | 157 | 224 | 3860
4 | AUUACACGUGA (ssRNA) [Cy5-rpoA] | – | – | – | – | – | 129 | 132 | 202 | 168 | 4240
